# T1: C1s (human, UniProt P09871 16-688, limits assumed)
# T1 construct: Species read from 'Recombinant human MASP-2 or C1r, C1s, CFD, MASP-1 and MASP-3'
# T1 sequence (looked up): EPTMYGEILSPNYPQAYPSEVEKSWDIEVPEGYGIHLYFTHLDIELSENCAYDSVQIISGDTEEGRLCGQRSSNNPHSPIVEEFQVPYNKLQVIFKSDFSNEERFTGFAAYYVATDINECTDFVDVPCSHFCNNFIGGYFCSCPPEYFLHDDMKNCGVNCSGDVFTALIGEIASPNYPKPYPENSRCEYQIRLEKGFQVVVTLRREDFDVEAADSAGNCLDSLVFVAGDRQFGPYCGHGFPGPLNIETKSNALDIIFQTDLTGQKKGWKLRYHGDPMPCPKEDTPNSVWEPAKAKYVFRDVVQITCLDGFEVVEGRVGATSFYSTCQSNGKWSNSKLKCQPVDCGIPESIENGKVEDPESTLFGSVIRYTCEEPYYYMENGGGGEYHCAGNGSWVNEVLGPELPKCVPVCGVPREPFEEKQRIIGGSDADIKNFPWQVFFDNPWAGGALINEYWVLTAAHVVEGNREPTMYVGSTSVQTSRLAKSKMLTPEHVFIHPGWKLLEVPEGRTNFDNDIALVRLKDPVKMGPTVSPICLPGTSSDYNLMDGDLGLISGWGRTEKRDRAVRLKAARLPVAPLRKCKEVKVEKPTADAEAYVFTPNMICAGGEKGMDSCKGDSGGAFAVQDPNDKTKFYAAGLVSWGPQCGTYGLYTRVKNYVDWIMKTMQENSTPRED
# T2: C1r (human, UniProt P00736 18-705, limits assumed)
# T2 construct: Species read from 'Recombinant human MASP-2 or C1r, C1s, CFD, MASP-1 and MASP-3'
# T2 sequence (looked up): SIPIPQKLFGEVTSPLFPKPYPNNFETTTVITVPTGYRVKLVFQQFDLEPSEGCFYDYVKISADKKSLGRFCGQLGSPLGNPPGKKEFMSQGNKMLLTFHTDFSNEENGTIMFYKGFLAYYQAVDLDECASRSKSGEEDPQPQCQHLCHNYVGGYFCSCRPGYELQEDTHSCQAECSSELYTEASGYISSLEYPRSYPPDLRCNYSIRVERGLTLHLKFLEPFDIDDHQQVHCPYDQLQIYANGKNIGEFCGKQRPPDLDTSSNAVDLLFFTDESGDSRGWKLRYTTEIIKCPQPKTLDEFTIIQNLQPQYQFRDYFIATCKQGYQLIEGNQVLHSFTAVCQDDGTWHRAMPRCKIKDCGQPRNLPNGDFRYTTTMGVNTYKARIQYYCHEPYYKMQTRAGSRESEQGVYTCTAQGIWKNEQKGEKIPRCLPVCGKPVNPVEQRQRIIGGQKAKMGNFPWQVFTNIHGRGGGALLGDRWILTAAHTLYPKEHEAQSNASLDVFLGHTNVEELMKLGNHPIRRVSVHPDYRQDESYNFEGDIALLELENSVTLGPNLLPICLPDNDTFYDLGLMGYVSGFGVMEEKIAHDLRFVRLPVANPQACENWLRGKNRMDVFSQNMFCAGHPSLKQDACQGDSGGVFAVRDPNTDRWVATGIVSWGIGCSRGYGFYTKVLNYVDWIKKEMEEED
# Assays:
# [1] = molecular target: mouse MASP-2 (endogenous, in mouse serum or hirudin plasma) (mouse, UniProt Q91WP0 20-685); assay: cell-based or functional assay
# [2] = molecular target: cynomolgus monkey MASP-2 (endogenous, in cynomolgus monkey serum) (cynomolgus monkey, UniProt O00187 16-686 (human entry), limits assumed); assay: cell-based or functional assay
# [3] = molecular target: T3, Human MASP-2 CCP1/CCP2/SP H508Q 'dog-like' (human, UniProt O00187 287-686, limits assumed); assay: BLI (Octet RED96), H508Q against wild-type human MASP-2 CCP1/CCP2/SP
# T3 construct: also called dog-like variant of human MASP-2; MASP-2 H508Q
# Procedure: All measurements were conducted with the Octet RED96 system (ForteBio) using PBS containing 1% BSA and 0.02% Tween 20 as assay buffer. […] After one step of baseline, the captured sensors were submerged into wells containing different concentrations of the target proteins (1.6-50 nM) for the association step (120 sec), and then transferred to empty wells for the dissociation step (200 sec). In all experiments, the captured sensor was also dipped in a well containing no analyte to allow single reference subtraction to compensate for the natural dissociation of the captured antibody. The recorded binding sensorgrams were analyzed with Octet data analysis software (ForteBio) to determine binding affinity (KD).
# C1s = molecular target: T1, C1s; assay: solid phase ELISA, immobilized protease, apparent KD
# Excerpt: (§1) The apparent dissociation constant (KD) was estimated by nonlinear regression using a 4-parameter logistic model.
# CFD = molecular target: T4, CFD (human, UniProt P00746 26-253, limits assumed); assay: as above
# T4 construct: Species read from 'Recombinant human MASP-2 or C1r, C1s, CFD, MASP-1 and MASP-3'; also called factor D; complement factor D
# Excerpt: as §1
# C1r = molecular target: T2, C1r; assay: as above
# Excerpt: as §1
# T4 sequence (P00746 26-253 limits assumed): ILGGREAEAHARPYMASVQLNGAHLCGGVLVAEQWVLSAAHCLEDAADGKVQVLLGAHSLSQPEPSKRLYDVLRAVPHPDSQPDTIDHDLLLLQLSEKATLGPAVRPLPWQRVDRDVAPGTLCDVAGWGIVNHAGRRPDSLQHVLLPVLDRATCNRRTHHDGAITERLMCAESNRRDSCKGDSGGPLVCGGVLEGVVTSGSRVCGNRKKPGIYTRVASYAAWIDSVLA
# Sequence of mouse MASP-2 (endogenous, in mouse serum or hirudin plasma) (Q91WP0 20-685 limits assumed): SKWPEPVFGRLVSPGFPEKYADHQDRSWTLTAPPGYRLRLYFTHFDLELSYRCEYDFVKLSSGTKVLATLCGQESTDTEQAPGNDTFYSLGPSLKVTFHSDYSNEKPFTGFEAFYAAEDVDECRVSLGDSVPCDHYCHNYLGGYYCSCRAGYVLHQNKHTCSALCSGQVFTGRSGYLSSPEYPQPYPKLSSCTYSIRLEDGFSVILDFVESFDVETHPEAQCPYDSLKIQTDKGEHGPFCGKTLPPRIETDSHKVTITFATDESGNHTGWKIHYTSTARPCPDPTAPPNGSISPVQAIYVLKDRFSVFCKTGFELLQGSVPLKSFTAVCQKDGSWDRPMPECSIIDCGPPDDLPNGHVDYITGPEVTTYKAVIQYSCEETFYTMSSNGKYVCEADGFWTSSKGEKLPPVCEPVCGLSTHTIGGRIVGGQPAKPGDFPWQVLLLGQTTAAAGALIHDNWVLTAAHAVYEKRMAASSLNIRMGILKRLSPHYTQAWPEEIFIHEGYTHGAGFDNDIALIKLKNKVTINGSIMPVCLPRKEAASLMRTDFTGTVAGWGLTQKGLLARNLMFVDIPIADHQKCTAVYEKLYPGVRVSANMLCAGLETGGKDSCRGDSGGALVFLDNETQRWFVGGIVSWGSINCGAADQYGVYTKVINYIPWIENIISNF
# Sequence of cynomolgus monkey MASP-2 (endogenous, in cynomolgus monkey serum) (O00187 other isoform, or with tags, fused parts or gaps limits assumed): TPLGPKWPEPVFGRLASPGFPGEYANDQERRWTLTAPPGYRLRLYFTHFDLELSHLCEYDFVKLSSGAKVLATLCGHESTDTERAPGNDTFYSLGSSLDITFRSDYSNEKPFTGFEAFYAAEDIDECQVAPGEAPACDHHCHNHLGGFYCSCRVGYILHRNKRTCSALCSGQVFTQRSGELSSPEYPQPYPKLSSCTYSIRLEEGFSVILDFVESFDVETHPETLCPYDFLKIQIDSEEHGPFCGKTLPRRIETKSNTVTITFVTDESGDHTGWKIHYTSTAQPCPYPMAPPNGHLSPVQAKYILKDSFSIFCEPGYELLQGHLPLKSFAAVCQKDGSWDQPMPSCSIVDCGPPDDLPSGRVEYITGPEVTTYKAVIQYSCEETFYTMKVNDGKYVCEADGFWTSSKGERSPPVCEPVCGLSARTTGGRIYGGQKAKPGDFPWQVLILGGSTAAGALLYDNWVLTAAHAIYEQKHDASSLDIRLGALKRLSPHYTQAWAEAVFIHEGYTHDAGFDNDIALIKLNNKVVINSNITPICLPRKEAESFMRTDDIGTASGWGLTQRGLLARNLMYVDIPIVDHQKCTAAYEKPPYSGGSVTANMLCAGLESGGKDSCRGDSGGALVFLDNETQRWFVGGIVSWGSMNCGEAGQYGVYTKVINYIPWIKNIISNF
# T3 sequence (O00187 other isoform, or with tags, fused parts or gaps H508Q H508Q limits assumed): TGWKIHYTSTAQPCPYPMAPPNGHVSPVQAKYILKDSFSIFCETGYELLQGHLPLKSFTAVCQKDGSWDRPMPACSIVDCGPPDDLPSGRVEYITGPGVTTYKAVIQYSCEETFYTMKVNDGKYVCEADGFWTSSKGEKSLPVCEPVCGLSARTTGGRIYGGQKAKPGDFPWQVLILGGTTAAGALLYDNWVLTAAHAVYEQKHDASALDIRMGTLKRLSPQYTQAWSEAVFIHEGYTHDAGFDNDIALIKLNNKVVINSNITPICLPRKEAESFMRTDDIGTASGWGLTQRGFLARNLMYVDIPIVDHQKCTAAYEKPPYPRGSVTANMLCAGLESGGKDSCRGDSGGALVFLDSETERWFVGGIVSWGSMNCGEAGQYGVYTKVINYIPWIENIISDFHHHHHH
binder,measurement,setting,value
"mAb OMS858 (humanized anti-MASP-2 antibody) (antibody, V domains shown, also called antibody OMS858; biotinylated OMS858) VH: QVQLVQSGAEVKKPGASVKVSCKASGYTFTNHHMHWLRQAPGQGLEWIGDIDASDSETHYIEKFKDRATLTIDKSSSTAYMELSSLRSEDTAVYYCARGDITTTLRYFDVWGQGTLVTVSS VL: DIQLTQSPSSLSASVGDRVTITCSASSSVRYMYWYQQKPGKAPKLLIYDTSNLASGVPSRFSGSGSGTDNTLTISSLQPEDFATYYCQQWSSYPLTFGQGTKVEIKR","Ratio (IC50-Query/IC50-Human), lectin-dependent C4 activation",[1],10.9 fold
same,"Ratio (IC50-Query/IC50-Human), lectin-dependent C4 activation",[2],40.5 fold
same,fold reduction of binding affinity against wild-type human MASP-2 CCP1/CCP2/SP,[3],~450 fold
same,Kd,C1s,> 100 µg/mL
same,Kd,CFD,> 100 µg/mL
same,Kd,C1r,> 100 µg/mL
